Measurements: patent US20230039851A1 (ARO BIOTHERAPEUTICS, published 2023)
Changes are numbered by the printed parent chain. In names and notes the source's numbering stands.

Assays:
Cynomolgus Serum Albumin [1] = molecular target: T1, Cynomolgus Serum Albumin (cynomolgus monkey, UniProt A2V9Z4 25-608); assay: ELISA on immobilized cynomolgus albumin
T1 construct: ELISA: albumin coated on plates; pull-down: endogenous albumin in cynomolgus serum; also called cSA; Cyno SA
Method: (§1) The FN3 proteins were also tested in an ELISA assay to determine their ability to bind to immobilized human or cynomolgous albumin. The binding of 667 nM B7 and B7 variants to human or cynomolgous albumin are illustrated in Table 7. The negative control is wt Tencon.

Cynomolgus Serum Albumin [2] = molecular target: T1, Cynomolgus Serum Albumin; assay: ELISA, 667 nM FN3 protein on immobilized cynomolgus albumin
Method: as §1

Human Serum Albumin [3] = molecular target: T2, Human Serum Albumin (human, UniProt P02768 25-609); assay: ELISA on immobilized human albumin
T2 construct: ELISA: albumin coated on plates; pull-down: endogenous albumin in normal human serum; also called HSA; Human SA
T2 sequence (P02768 25-609 limits assumed): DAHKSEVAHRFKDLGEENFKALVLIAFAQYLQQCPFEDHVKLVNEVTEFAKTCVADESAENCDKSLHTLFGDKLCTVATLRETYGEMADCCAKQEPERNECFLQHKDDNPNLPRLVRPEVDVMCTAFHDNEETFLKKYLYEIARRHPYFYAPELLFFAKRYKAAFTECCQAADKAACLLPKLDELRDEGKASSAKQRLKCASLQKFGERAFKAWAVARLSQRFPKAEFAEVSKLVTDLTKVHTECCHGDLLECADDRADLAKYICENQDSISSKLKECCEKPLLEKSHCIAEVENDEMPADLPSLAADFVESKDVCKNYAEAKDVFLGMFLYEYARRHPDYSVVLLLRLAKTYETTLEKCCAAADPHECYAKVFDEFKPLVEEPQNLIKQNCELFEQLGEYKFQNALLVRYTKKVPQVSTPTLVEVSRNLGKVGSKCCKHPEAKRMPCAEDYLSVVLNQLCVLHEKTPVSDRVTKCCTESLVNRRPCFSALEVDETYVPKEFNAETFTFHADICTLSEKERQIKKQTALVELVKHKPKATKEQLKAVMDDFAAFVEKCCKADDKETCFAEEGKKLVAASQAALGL
Method: as §1

Human Serum Albumin [4] = molecular target: T2, Human Serum Albumin; assay: ELISA, 667 nM FN3 protein on immobilized human albumin
Method: as §1

Cynomolgus Serum Albumin [5] = molecular target: T1, Cynomolgus Serum Albumin; assay: pull-down of endogenous albumin from cynomolgus serum
Human Serum Albumin [6] = molecular target: T2, Human Serum Albumin; assay: pull-down of endogenous albumin from human serum

T1 sequence (A2V9Z4 25-608 limits assumed): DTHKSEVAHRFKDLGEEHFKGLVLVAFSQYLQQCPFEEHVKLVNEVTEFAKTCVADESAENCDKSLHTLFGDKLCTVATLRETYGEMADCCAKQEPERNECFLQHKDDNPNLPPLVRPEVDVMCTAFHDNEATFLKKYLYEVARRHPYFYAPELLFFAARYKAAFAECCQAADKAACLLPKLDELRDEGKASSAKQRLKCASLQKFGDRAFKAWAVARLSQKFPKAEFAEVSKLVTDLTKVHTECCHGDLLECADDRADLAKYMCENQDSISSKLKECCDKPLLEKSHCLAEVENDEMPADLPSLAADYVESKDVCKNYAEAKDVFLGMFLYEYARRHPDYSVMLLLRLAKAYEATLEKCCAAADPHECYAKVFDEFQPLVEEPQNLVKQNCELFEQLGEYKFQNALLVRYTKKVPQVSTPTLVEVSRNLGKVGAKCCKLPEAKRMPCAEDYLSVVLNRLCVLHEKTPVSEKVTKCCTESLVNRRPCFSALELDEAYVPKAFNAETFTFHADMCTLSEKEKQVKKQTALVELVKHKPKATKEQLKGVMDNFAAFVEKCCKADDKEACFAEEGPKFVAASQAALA

B1: wt Tencon (designed binder)
chain: LPAPKNLVVSEVTEDSLRLSWTAPDAAFDSFLIQYQESEKVGEAINLTVPGSERSYDLTGLKPGTEYTVSIYGVKGGHRSNPLSAEFTT
notes: also called wild type tencon
binding result (Cynomolgus Serum Albumin [1]): no binding (tested: 667 nM)
Cyno Albumin (RLU) (Cynomolgus Serum Albumin [2]): 775 RLU
binding result (Human Serum Albumin [3]): no binding (tested: 667 nM)
Human Albumin (RLU) (Human Serum Albumin [4]): 8350 RLU

B2: A10V (designed binder)
chain: MLPAPKNLVVSRVTEDSARLSWTAPDAAFDSFNIAYWEPGIGGEAIWLRVPGSERSYDLTGLKPGTEYKVWIHGVKGGASSPPLIARFTT
notes: Variant of B7; also called B7 A10V; not shown: His tag: FN3 domains were purified as His-tagged proteins
Cyno Albumin (RLU) (Cynomolgus Serum Albumin [2]): 43600 RLU
Human Albumin (RLU) (Human Serum Albumin [4]): 23100 RLU

B3: A10V, I85A (designed binder)
chain: B2 chain with I85A
notes: Variant of B7; not shown: His tag: FN3 domains were purified as His-tagged proteins
Cyno Albumin (RLU) (Cynomolgus Serum Albumin [2]): 2500 RLU
Human Albumin (RLU) (Human Serum Albumin [4]): 1000 RLU
binding result (Cynomolgus Serum Albumin [5]): no binding
binding result (Human Serum Albumin [6]): no binding

B4: A10V, R49A (designed binder)
chain: B2 chain with R49A
notes: as for B3
Cyno Albumin (RLU) (Cynomolgus Serum Albumin [2]): 1150 RLU
Human Albumin (RLU) (Human Serum Albumin [4]): 1020 RLU

B5: A10V, A79S (designed binder)
chain: B2 chain with A79S
notes: as for B3
Cyno Albumin (RLU) (Cynomolgus Serum Albumin [2]): 9200 RLU
Human Albumin (RLU) (Human Serum Albumin [4]): 250 RLU
binding result (Human Serum Albumin [6]): no binding

B6: A10V, A35S (designed binder)
chain: B2 chain with A35S
notes: as for B3
Cyno Albumin (RLU) (Cynomolgus Serum Albumin [2]): 2950 RLU
Human Albumin (RLU) (Human Serum Albumin [4]): 2950 RLU

B7: A10V, K69A (designed binder)
chain: B2 chain with K69A
notes: as for B3
Cyno Albumin (RLU) (Cynomolgus Serum Albumin [2]): 42300 RLU
Human Albumin (RLU) (Human Serum Albumin [4]): 15900 RLU

B8: A10V, W71A (designed binder)
chain: B2 chain with W71A
notes: as for B3
Cyno Albumin (RLU) (Cynomolgus Serum Albumin [2]): 1600 RLU
Human Albumin (RLU) (Human Serum Albumin [4]): 950 RLU
binding result (Cynomolgus Serum Albumin [5]): no binding
binding result (Human Serum Albumin [6]): no binding

B9: A10V, P39A (designed binder)
chain: B2 chain with P39A
notes: as for B3
Cyno Albumin (RLU) (Cynomolgus Serum Albumin [2]): 73600 RLU
Human Albumin (RLU) (Human Serum Albumin [4]): 107000 RLU

B10: A10V, G40A (designed binder)
chain: B2 chain with G40A
notes: as for B3
Cyno Albumin (RLU) (Cynomolgus Serum Albumin [2]): 64400 RLU
Human Albumin (RLU) (Human Serum Albumin [4]): 69800 RLU

B11: A10V, P82A (designed binder)
chain: B2 chain with P82A
notes: as for B3
Cyno Albumin (RLU) (Cynomolgus Serum Albumin [2]): 24100 RLU
Human Albumin (RLU) (Human Serum Albumin [4]): 21700 RLU

B12: B7 (designed binder)
chain: B2 chain with V10A
notes: FN3 domain (Tencon27-based library clone) expressed in E. coli; also called ALB40; not shown: His tag: FN3 domains were purified as His-tagged proteins
Cyno Albumin (RLU) (Cynomolgus Serum Albumin [2]): 145000 RLU
Human Albumin (RLU) (Human Serum Albumin [4]): 97400 RLU

B13: A10V, W47A (designed binder)
chain: B2 chain with W47A
notes: as for B3
Cyno Albumin (RLU) (Cynomolgus Serum Albumin [2]): 2000 RLU
Human Albumin (RLU) (Human Serum Albumin [4]): 2100 RLU
binding result (Cynomolgus Serum Albumin [5]): no binding
binding result (Human Serum Albumin [6]): no binding

B14: A10V, I41A (designed binder)
chain: B2 chain with I41A
notes: as for B3
Cyno Albumin (RLU) (Cynomolgus Serum Albumin [2]): 46200 RLU
Human Albumin (RLU) (Human Serum Albumin [4]): 50600 RLU

B15: A10V, W37A (designed binder)
chain: B2 chain with W37A
notes: as for B3
Cyno Albumin (RLU) (Cynomolgus Serum Albumin [2]): 500 RLU
Human Albumin (RLU) (Human Serum Albumin [4]): 600 RLU
binding result (Cynomolgus Serum Albumin [5]): no binding
binding result (Human Serum Albumin [6]): no binding

B16: A10V, N33A (designed binder)
chain: B2 chain with N33A
notes: as for B3
Cyno Albumin (RLU) (Cynomolgus Serum Albumin [2]): 1500 RLU
Human Albumin (RLU) (Human Serum Albumin [4]): 2350 RLU
binding result (Cynomolgus Serum Albumin [5]): no binding
binding result (Human Serum Albumin [6]): no binding

B17: A10V, S80A (designed binder)
chain: B2 chain with S80A
notes: as for B3
Cyno Albumin (RLU) (Cynomolgus Serum Albumin [2]): 2950 RLU
Human Albumin (RLU) (Human Serum Albumin [4]): 2950 RLU

B18: A10V, H73A (designed binder)
chain: B2 chain with H73A
notes: as for B3
Cyno Albumin (RLU) (Cynomolgus Serum Albumin [2]): 600 RLU
Human Albumin (RLU) (Human Serum Albumin [4]): 550 RLU
binding result (Cynomolgus Serum Albumin [5]): no binding
binding result (Human Serum Albumin [6]): no binding

B19: A10V, G42A (designed binder)
chain: B2 chain with G42A
notes: as for B3
Cyno Albumin (RLU) (Cynomolgus Serum Albumin [2]): 9180 RLU
Human Albumin (RLU) (Human Serum Albumin [4]): 4480 RLU

B20: A10V, R87A (designed binder)
chain: B2 chain with R87A
notes: as for B3
Cyno Albumin (RLU) (Cynomolgus Serum Albumin [2]): 66300 RLU
Human Albumin (RLU) (Human Serum Albumin [4]): 47400 RLU
